Source: IntAct's records for PubMed 27178753

B1: Focal adhesion kinase 1 (Homo sapiens), Q05397 (parent)
chain: MAAAYLDPNLNHTPNSSTKTHLGTGMERSPGAMERVLKVFHYFESNSEPTTWASIIRHGDATDVRGIIQKIVDSHKVKHVACYGFRLSHLRSEEVHWLHVDMGVSSVREKYELAHPPEEWKYELRIRYLPKGFLNQFTEDKPTLNFFYQQVKSDYMLEIADQVDQEIALKLGCLEIRRSYWEMRGNALEKKSNYEVLEKDVGLKRFFPKSLLDSVKAKTLRKLIQQTFRQFANLNREESILKFFEILSPVYRFDKECFKCALGSSWIISVELAIGPEEGISYLTDKGCNPTHLADFTQVQTIQYSNSEDKDRKGMLQLKIAGAPEPLTVTAPSLTIAENMADLIDGYCRLVNGTSQSFIIRPQKEGERALPSIPKLANSEKQGMRTHAVSVSETDDYAEIIDEEDTYTMPSTRDYEIQRERIELGRCIGEGQFGDVHQGIYMSPENPALAVAIKTCKNCTSDSVREKFLQEALTMRQFDHPHIVKLIGVITENPVWIIMELCTLGELRSFLQVRKYSLDLASLILYAYQLSTALAYLESKRFVHRDIAARNVLVSSNDCVKLGDFGLSRYMEDSTYYKASKGKLPIKWMAPESINFRRFTSASDVWMFGVCMWEILMHGVKPFQGVKNNDVIGRIENGERLPMPPNCPPTLYSLMTKCWAYDPSRRPRFTELKAQLSTILEEEKAQQEERMRMESRRQATVSWDSGGSDEAPPKPSRPGYPSPRSSEGFYPSPQHMVQTNHYQVSGYPGSHGITAMAGSIYPGQASLLDQTDSWNHRPQEIAMWQPNVEDSTVLDLRGIGQVLPTHLMEERLIRQQQEMEEDQRWLEKEERFLKPDVRLSRGSIDREDGSLQGPIGNQHIYQPVGKPDPAAPPKKPPRPGAPGHLGSLASLSSPADSYNEGVKLQPQEISPPPTANLDRSNDKVYENVTGLVKAVIEMSSKIQPAPPEEYVPMVKEVGLALRTLLATVDETIPLLPASTHREIEMAQKLLNSDLGELINKMKLAQQYVMTSLQQEYKKQMLTAAHALAVDAKNLLDVIDQARLKMLGQTRPH

Variants of: B1
Settings: with itb4_human ITGB4, P16144
Chain of itb4_human ITGB4, P16144 (P16144 whole entry): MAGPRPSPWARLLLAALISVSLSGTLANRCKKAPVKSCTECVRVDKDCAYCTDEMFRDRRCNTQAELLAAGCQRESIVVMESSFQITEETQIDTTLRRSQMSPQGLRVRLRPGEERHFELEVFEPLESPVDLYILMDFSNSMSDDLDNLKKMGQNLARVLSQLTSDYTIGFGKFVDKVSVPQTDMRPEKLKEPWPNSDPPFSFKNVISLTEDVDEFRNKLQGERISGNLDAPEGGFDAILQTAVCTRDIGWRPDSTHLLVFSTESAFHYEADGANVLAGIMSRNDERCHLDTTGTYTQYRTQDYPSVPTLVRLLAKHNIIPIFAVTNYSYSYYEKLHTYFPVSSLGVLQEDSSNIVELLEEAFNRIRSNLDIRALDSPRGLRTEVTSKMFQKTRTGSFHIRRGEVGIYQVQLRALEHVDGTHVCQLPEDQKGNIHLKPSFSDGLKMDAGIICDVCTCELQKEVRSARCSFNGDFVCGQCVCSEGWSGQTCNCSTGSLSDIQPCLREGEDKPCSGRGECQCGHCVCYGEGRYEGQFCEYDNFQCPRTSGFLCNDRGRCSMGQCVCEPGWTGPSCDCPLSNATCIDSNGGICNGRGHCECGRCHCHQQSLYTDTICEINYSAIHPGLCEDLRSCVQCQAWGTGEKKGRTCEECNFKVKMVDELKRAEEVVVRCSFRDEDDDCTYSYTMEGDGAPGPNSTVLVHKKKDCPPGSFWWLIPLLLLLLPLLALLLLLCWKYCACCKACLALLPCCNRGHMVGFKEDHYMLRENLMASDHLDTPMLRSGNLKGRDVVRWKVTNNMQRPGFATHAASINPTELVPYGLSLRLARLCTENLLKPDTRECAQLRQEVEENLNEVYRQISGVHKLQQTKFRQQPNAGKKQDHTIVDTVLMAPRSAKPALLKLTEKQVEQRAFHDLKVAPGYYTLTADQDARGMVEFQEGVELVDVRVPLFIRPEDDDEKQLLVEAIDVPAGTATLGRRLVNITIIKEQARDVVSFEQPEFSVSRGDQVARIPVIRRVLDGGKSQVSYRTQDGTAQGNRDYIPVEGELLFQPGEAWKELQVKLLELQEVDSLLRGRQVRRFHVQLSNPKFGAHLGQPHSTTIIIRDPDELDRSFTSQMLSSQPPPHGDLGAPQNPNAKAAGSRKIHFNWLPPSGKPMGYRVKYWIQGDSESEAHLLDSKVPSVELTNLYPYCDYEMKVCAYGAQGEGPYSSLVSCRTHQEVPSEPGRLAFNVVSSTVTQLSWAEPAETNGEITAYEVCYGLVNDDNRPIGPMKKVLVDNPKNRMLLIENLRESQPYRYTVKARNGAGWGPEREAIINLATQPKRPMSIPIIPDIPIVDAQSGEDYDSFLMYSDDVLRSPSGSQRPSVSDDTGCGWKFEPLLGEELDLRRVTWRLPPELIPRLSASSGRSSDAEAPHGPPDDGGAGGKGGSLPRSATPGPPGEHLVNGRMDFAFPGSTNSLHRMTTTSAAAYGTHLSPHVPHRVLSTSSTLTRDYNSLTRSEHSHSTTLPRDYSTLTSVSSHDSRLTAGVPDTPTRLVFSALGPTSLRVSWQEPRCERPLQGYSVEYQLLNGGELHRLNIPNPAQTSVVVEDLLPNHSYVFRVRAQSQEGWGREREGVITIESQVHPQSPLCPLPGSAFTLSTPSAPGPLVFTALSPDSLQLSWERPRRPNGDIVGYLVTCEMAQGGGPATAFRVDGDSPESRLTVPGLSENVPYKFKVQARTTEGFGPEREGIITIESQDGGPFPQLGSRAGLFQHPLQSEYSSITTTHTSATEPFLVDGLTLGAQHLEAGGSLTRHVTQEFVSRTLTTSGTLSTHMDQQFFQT

effect of a mutation on the interaction	Variant
disrupting interaction	E380A;K381A;Q382A

Variants of: B1
Settings: with itb4_human ITGB4, P16144
Remark: another data set of the same source

effect of a mutation on the interaction	Variant
decreasing interaction	R385A;T386A
